Assay results published in article PMC5159498, “IQGAP1 Interaction with RHO Family Proteins Revisited” (The Journal of Biological Chemistry, 2016).

What was measured:
RAC1 (aa 1-179) [1] = target: T1, RAC1 (aa 1-179) (human, UniProt P63000 1-179); experiment: fluorescence polarisation; IQGAP1 variant titrated to mGppNHp-bound RHO protein (1 μM); equilibrium Kd (eKd), quadratic fit; 30 mM Tris/HCl pH 7.5, 150 mM NaCl, 5 mM MgCl2, 3 mM DTT, 25 °C; conditions: both partners purified
RAC1 (aa 1-179) [2] = target: T1, RAC1 (aa 1-179); experiment: stopped-flow fluorometry; mGppNHp-bound RHO protein (0.2 μM) rapidly mixed with IQGAP1 variant (2 μM, or 2-12 μM for kon); koff by displacement with 10 μM non-fluorescent GppNHp-bound GTPase; Kd = koff/kon; 30 mM Tris-HCl pH 7.5, 10 mM KH2PO4/K2HPO4, 5 mM MgCl2, 3 mM DTT; conditions: both partners purified
[3] = target: the molecule itself; experiment: SEC; analytical SEC, Superdex 200 10/30, calibrated with standard proteins; 100 μM protein in 200 μl; 30 mM Tris/HCl pH 7.5, 150 mM NaCl, 5 mM MgCl2, 3 mM DTT; 0.5 ml/min

B1: IQGAP1 GRD1-CT (aa 863-1657) (domain or fragment)
chain: DPPMVVVRKFVHLLDQSDQDFQEELDLMKMREEVITLIRSNQQLENDLNLMDIKIGLLVKNKITLQDVVSHSKKLTKKNKEQLSDMMMINKQKGGLKALSKEKREKLEAYQHLFYLLQTNPTYLAKLIFQMPQNKSTKFMDSVIFTLYNYASNQREEYLLLRLFKTALQEEIKSKVDQIQEIVTGNPTVIKMVVSFNRGARGQNALRQILAPVVKEIMDDKSLNIKTDPVDIYKSWVNQMESQTGEASKLPYDVTPEQALAHEEVKTRLDSSIRNMRAVTDKFLSAIVSSVDKIPYGMRFIAKVLKDSLHEKFPDAGEDELLKIIGNLLYYRYMNPAIVAPDAFDIIDLSAGGQLTTDQRRNLGSIAKMLQHAASNKMFLGDNAHLSIINEYLSQSYQKFRRFFQTACDVPELQDKFNVDEYSDLVTLTKPVIYISIGEIINTHTLLLDHQDAIAPEHNDPIHELLDDLGEVPTIESLIGESSGNLNDPNKEALAKTEVSLTLTNKFDVPGDENAEMDARTILLNTKRLIVDVIRFQPGETLTEILETPATSEQEAEHQRAMQRRAIRDAKTPDKMKKSKSVKEDSNLTLQEKKEKIQTGLKKLTELGTVDPKNKYQELINDIARDIRNQRRYRQRRKAELVKLQQTYAALNSKATFYGEQVDYYKSYIKTCLDNLASKGKVSKKPREMKGKKSKKISLKYTAARLHEKGVLLEIEDLQVNQFKNVIFEISPTEEVGDFEVKAKFMGVQMETFMLHYQDLLQLQYEGVAVMKLFDRAKVNVNLLIFLLNKKFYGK
notes: human IQGAP1, GRD, RGCT and CT domains, aa 863-1657; The GST tag was cleaved 'if needed'; also called C-terminal half of IQGAP1; C-terminal 795 amino acids of IQGAP1
In the case of B1, the Kd (RAC1 (aa 1-179) [1]) is reported as 5.53 µM and the Kd (RAC1 (aa 1-179) [2]) is reported as 0.94 µM.

B2: IQGAP1 GRD1-RGCT wild type (aa 877-1558) (domain or fragment, human, UniProt P46940 877-1558, looked up)
chain: DQSDQDFQEELDLMKMREEVITLIRSNQQLENDLNLMDIKIGLLVKNKITLQDVVSHSKKLTKKNKEQLSDMMMINKQKGGLKALSKEKREKLEAYQHLFYLLQTNPTYLAKLIFQMPQNKSTKFMDSVIFTLYNYASNQREEYLLLRLFKTALQEEIKSKVDQIQEIVTGNPTVIKMVVSFNRGARGQNALRQILAPVVKEIMDDKSLNIKTDPVDIYKSWVNQMESQTGEASKLPYDVTPEQALAHEEVKTRLDSSIRNMRAVTDKFLSAIVSSVDKIPYGMRFIAKVLKDSLHEKFPDAGEDELLKIIGNLLYYRYMNPAIVAPDAFDIIDLSAGGQLTTDQRRNLGSIAKMLQHAASNKMFLGDNAHLSIINEYLSQSYQKFRRFFQTACDVPELQDKFNVDEYSDLVTLTKPVIYISIGEIINTHTLLLDHQDAIAPEHNDPIHELLDDLGEVPTIESLIGESSGNLNDPNKEALAKTEVSLTLTNKFDVPGDENAEMDARTILLNTKRLIVDVIRFQPGETLTEILETPATSEQEAEHQRAMQRRAIRDAKTPDKMKKSKSVKEDSNLTLQEKKEKIQTGLKKLTELGTVDPKNKYQELINDIARDIRNQRRYRQRRKAELVKLQQTYAALNSKATFYGEQVDYYKSYIKTCLDNLASKGKVSKKPREMKGKKSKK
notes: human IQGAP1, GRD and RGCT domains, lacks the last 99 amino acids, aa 877-1558; also called GRD1-RGCT^WT; IQGAP1^877-1558
For B2, the Kd (RAC1 (aa 1-179) [1]) was 4.6 µM, the Kd (RAC1 (aa 1-179) [2]) was 2.81 µM and the “stoichiometry N” value [3] was 2.

B3: IQGAP1 GRD1-RGCT S1441E (aa 877-1558) (domain or fragment)
chain: DQSDQDFQEELDLMKMREEVITLIRSNQQLENDLNLMDIKIGLLVKNKITLQDVVSHSKKLTKKNKEQLSDMMMINKQKGGLKALSKEKREKLEAYQHLFYLLQTNPTYLAKLIFQMPQNKSTKFMDSVIFTLYNYASNQREEYLLLRLFKTALQEEIKSKVDQIQEIVTGNPTVIKMVVSFNRGARGQNALRQILAPVVKEIMDDKSLNIKTDPVDIYKSWVNQMESQTGEASKLPYDVTPEQALAHEEVKTRLDSSIRNMRAVTDKFLSAIVSSVDKIPYGMRFIAKVLKDSLHEKFPDAGEDELLKIIGNLLYYRYMNPAIVAPDAFDIIDLSAGGQLTTDQRRNLGSIAKMLQHAASNKMFLGDNAHLSIINEYLSQSYQKFRRFFQTACDVPELQDKFNVDEYSDLVTLTKPVIYISIGEIINTHTLLLDHQDAIAPEHNDPIHELLDDLGEVPTIESLIGESSGNLNDPNKEALAKTEVSLTLTNKFDVPGDENAEMDARTILLNTKRLIVDVIRFQPGETLTEILETPATSEQEAEHQRAMQRRAIRDAKTPDKMKKEKSVKEDSNLTLQEKKEKIQTGLKKLTELGTVDPKNKYQELINDIARDIRNQRRYRQRRKAELVKLQQTYAALNSKATFYGEQVDYYKSYIKTCLDNLASKGKVSKKPREMKGKKSKK
notes: human IQGAP1 aa 877-1558 with the phosphomimetic mutation S1441E, from the vector pET46 EkLIC; source: E. coli (pLysS BL21(DE3), CodonPlusRIL or BL21(Rosetta)), purified (Ni-NTA, gel filtration)
B3 was tested, and the Kd (RAC1 (aa 1-179) [1]) was 6.7 µM and the Kd (RAC1 (aa 1-179) [2]) was 3.21 µM.

B4: IQGAP1 GRD1-RGCT S1443E (aa 877-1558) (domain or fragment)
chain: DQSDQDFQEELDLMKMREEVITLIRSNQQLENDLNLMDIKIGLLVKNKITLQDVVSHSKKLTKKNKEQLSDMMMINKQKGGLKALSKEKREKLEAYQHLFYLLQTNPTYLAKLIFQMPQNKSTKFMDSVIFTLYNYASNQREEYLLLRLFKTALQEEIKSKVDQIQEIVTGNPTVIKMVVSFNRGARGQNALRQILAPVVKEIMDDKSLNIKTDPVDIYKSWVNQMESQTGEASKLPYDVTPEQALAHEEVKTRLDSSIRNMRAVTDKFLSAIVSSVDKIPYGMRFIAKVLKDSLHEKFPDAGEDELLKIIGNLLYYRYMNPAIVAPDAFDIIDLSAGGQLTTDQRRNLGSIAKMLQHAASNKMFLGDNAHLSIINEYLSQSYQKFRRFFQTACDVPELQDKFNVDEYSDLVTLTKPVIYISIGEIINTHTLLLDHQDAIAPEHNDPIHELLDDLGEVPTIESLIGESSGNLNDPNKEALAKTEVSLTLTNKFDVPGDENAEMDARTILLNTKRLIVDVIRFQPGETLTEILETPATSEQEAEHQRAMQRRAIRDAKTPDKMKKSKEVKEDSNLTLQEKKEKIQTGLKKLTELGTVDPKNKYQELINDIARDIRNQRRYRQRRKAELVKLQQTYAALNSKATFYGEQVDYYKSYIKTCLDNLASKGKVSKKPREMKGKKSKK
notes: human IQGAP1 aa 877-1558 with the phosphomimetic mutation S1443E (printed as S1143E in the methods, S1443E everywhere else), from the vector pET46 EkLIC; source: E. coli (pLysS BL21(DE3), CodonPlusRIL or BL21(Rosetta)), purified (Ni-NTA, gel filtration)
In the case of B4, the Kd (RAC1 (aa 1-179) [1]) is reported as 26.7 µM and the Kd (RAC1 (aa 1-179) [2]) is reported as 6.26 µM.

B5: IQGAP1 GRD2 (aa 962-1345) (domain or fragment, human, UniProt P46940 962-1345, looked up)
chain: SKEKREKLEAYQHLFYLLQTNPTYLAKLIFQMPQNKSTKFMDSVIFTLYNYASNQREEYLLLRLFKTALQEEIKSKVDQIQEIVTGNPTVIKMVVSFNRGARGQNALRQILAPVVKEIMDDKSLNIKTDPVDIYKSWVNQMESQTGEASKLPYDVTPEQALAHEEVKTRLDSSIRNMRAVTDKFLSAIVSSVDKIPYGMRFIAKVLKDSLHEKFPDAGEDELLKIIGNLLYYRYMNPAIVAPDAFDIIDLSAGGQLTTDQRRNLGSIAKMLQHAASNKMFLGDNAHLSIINEYLSQSYQKFRRFFQTACDVPELQDKFNVDEYSDLVTLTKPVIYISIGEIINTHTLLLDHQDAIAPEHNDPIHELLDDLGEVPTIESLIGESS
notes: human IQGAP1, GAP-related domain fragment GRD2, aa 962-1345, from the vector pMCSG7; source: E. coli (pLysS BL21(DE3), CodonPlusRIL or BL21(Rosetta)), purified (Ni-NTA, gel filtration)
In the case of B5, the “stoichiometry N” value [3] is reported as 2.

B6: IQGAP1 RGCT (aa 1276-1575) (domain or fragment, human, UniProt P46940 1276-1575, looked up)
chain: QDKFNVDEYSDLVTLTKPVIYISIGEIINTHTLLLDHQDAIAPEHNDPIHELLDDLGEVPTIESLIGESSGNLNDPNKEALAKTEVSLTLTNKFDVPGDENAEMDARTILLNTKRLIVDVIRFQPGETLTEILETPATSEQEAEHQRAMQRRAIRDAKTPDKMKKSKSVKEDSNLTLQEKKEKIQTGLKKLTELGTVDPKNKYQELINDIARDIRNQRRYRQRRKAELVKLQQTYAALNSKATFYGEQVDYYKSYIKTCLDNLASKGKVSKKPREMKGKKSKKISLKYTAARLHEKGVLL
notes: human IQGAP1, RASGAP C-terminal domain, aa 1276-1575; source: E. coli (pLysS BL21(DE3), CodonPlusRIL or BL21(Rosetta)), purified
B6: binds [3].

B7: GST-fused IQGAP1 RGCT-CT (aa 1276-1657) (domain or fragment, human, UniProt P46940 1276-1657, looked up)
chain: QDKFNVDEYSDLVTLTKPVIYISIGEIINTHTLLLDHQDAIAPEHNDPIHELLDDLGEVPTIESLIGESSGNLNDPNKEALAKTEVSLTLTNKFDVPGDENAEMDARTILLNTKRLIVDVIRFQPGETLTEILETPATSEQEAEHQRAMQRRAIRDAKTPDKMKKSKSVKEDSNLTLQEKKEKIQTGLKKLTELGTVDPKNKYQELINDIARDIRNQRRYRQRRKAELVKLQQTYAALNSKATFYGEQVDYYKSYIKTCLDNLASKGKVSKKPREMKGKKSKKISLKYTAARLHEKGVLLEIEDLQVNQFKNVIFEISPTEEVGDFEVKAKFMGVQMETFMLHYQDLLQLQYEGVAVMKLFDRAKVNVNLLIFLLNKKFYGK
notes: human IQGAP1, RGCT and CT domains, aa 1276-1657; source: E. coli (pLysS BL21(DE3), CodonPlusRIL or BL21(Rosetta)), purified; not shown: GST, N-terminal, kept
B7: binds [3].
